Target: fluorescein isothiocyanate-tagged BSA (FITC-BSA) (UniProt P02769)
Sequence (P02769 25-607): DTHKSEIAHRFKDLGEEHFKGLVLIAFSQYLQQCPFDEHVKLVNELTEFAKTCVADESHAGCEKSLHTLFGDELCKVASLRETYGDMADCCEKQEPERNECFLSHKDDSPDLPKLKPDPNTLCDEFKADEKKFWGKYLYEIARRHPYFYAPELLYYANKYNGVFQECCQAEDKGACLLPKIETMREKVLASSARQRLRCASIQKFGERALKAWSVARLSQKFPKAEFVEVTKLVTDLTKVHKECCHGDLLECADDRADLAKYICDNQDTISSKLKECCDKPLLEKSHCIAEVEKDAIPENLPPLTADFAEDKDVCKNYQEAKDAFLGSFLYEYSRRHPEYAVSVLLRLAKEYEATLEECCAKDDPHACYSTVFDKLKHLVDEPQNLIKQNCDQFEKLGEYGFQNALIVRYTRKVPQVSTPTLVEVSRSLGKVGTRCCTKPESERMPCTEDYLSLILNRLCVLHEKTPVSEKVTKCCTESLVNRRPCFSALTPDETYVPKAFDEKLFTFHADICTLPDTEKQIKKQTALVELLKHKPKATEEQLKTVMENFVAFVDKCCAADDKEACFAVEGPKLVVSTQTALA

**Q.** trypsin was tested. Which “increase in fluorescence from proteolytic cleavage of quenched FITC-BSA” value did it give?
**A.** This assay confirmed the ability of trypsin@NP to cleave BSA
